# In patent publication US20110251140A1 (CENTRO DE INGENIERIA GENETICA Y BIOTECNOLOGIA, published 2011):
# No end group written: not given here.
# T1: IL-15Rα on CTLL-2 cells (murine (CTLL-2 murine cell line), UniProt Q60819 33-263)
# T1 sequence (looked up): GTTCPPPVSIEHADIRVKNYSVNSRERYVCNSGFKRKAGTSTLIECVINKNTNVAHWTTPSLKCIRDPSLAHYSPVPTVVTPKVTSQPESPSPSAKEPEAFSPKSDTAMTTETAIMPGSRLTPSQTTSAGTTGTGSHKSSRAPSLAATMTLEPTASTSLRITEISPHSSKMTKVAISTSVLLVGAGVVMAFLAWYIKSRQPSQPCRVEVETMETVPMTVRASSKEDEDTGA
# Target: T1, IL-15Rα on CTLL-2 cells
# Assay: cell-based or functional assay
Binder,"IC50 (µM), IL-15-induced (300 pg/mL) proliferation of the CTLL-2 cell line, MTT [µM]","IC50 (µM), IL-15-induced proliferation of the CTLL-2 cell line, MTT; '0' stands for loss of the inhibitory effect [µM]"
KVTAMTCYLL-NH2,57.7,
KVTAMKCFAL-NH2,200,
"KVTAMTCFLL-NH2 [peptide SEQ ID No. 12 (Lys-Thr mutant, monomer)]",24.6,
KVTAMKCFLA-NH2,260,
KVTAAKCFLL-NH2,130,
KATAMKCFLL-NH2,130,
KVTAMKAFLL-NH2 [Cys-Ala mutant (SEQ ID No. 5)],,0
KVAAMKCFLL-NH2,130,
KVTAMECFLL-NH2,,0
KVTAMKCALL-NH2 [mutant Phe-Ala (SEQ ID No. 4)],,0
KVTAMKCFLL-NH2 [KVTAMKCFLL (IL-15 antagonistic peptide of patent application No. WO2006/029578)],130,
KVTAMKSFLL-NH2,,0

# Target: T1, IL-15Rα on CTLL-2 cells
# Assay: cell-based or functional assay
# Remark: another data set of the same source
Binder,"fold inhibitory activity against the original peptide, CTLL-2 proliferation assay [fold]","inhibitory concentration 50 (IC50), IL-15-dependent proliferation [µM]"
"KVTAMTCFLL-NH2 [peptide SEQ ID No. 12 (Lys-Thr mutant, monomer)]",5,
"KVTAMTCFLL-NH2 (also: homodimer, two monomers linked through the free Cys) [peptide dimer of SEQ ID No. 12 linked through the free Cys]",15,8
